Experimental data as given in the DeepSol protein solubility set.

Test: soluble on expression in E. coli; label from the status in PepcDB or PDB records
For “MYEGTLSMAVQSLGQAVNYCKRFGPRLVATKMLYKLLPQAGFSVCRQIEEYLKHYYLPDVAYHKTEFCGKIQADAPIWVMWWQGEERMPDVVRLAVASMRRFAGRRPVMLITKDNYHDYAKRSVDFYRYVEHGAISLTHFSDYVRFDLLHKYGGFWLDATLLMTAPIPDFVNDLRLFSIKHGTIRPGEQWSPMWSRNWTAYCWGGCAGDPFFDFMLRFFERYHEREGSVMIDYFLIDRIISVAYQEFVDVRNTIDAIPVNNVDVLTSPIVNTASINHRSDDNGTFLHKLSWKEPPQPDCGNGQRSWFGQLLDQYGIRLEHHHHHH”, the “soluble on expression in E. coli” value was “not soluble”. For “MFPIHYQFSIIHYPLKKEMKLNLKNPIVFFDLETTGTNINTDRIVEICYLKVYPNGNEETKTMRINPEMHIPEASSAVHGIYDADVADCPTFKEVAKNVARDIEGCDLAGFNSNRFDIPVLAEEFLRAGVDIDMTKRKFVDVQVIFHKMEQRTLSAAYKFYCEKSLEDAHTAEADTRATYEVLKAQLDRYPDLQNDIAFLAEYSSFTKNVDFAGRMVYDDNGVEVFNFGKYKGMSVAEVLKKDPGYYSWILNSDFTLNTKAVLTKIRLREMSNLITK”, the “soluble on expression in E. coli” value was “soluble”. With “MAHHHHHHMEKYKNILEKLEWYKNKSSEKYEFGIYEIDKREVFITTKYSYGFVNNKPLLPGHILLTTLKKKKHYNDLDIEEIIDINLLCNFMCYIMGNLFNTTDFSIAIQDGKEAGQTVDHVHIHIIPRKINDYKNNDNIYNDMNKINLGYGKNIICNSCNNTINVCSQNEIERNFKLEEFNTSIRSIEQMEEEANLIKSYINEKFSS” the “soluble on expression in E. coli” value was “not soluble”. For “MSLFYYIVDDDEVFRSMLSQIIEDGDLGEVIGESEDGAFVEAEQLNYKKVDILFIDLLMPMRDGIETVRHIASSFTGKIIMISQVESKQLIGEAYTLGVEYYITKPLNKIEVVSVVRKVIERIRLERSIYDIQKSLNNVFQWEKPQMRSETVQEEKKISDSGRFLLAELGIAGENGSKDLLSMLEYLYGQEKAQTFEFGFPALKDIFHQITLKKLGEIASDADIEKEKKASEQRVRRAIYQSLNHLASLGLTDFSNPKFESYAPKFFDFTVVRKRMTEMTKDGVATSGHIRINTKKFIQVLYFEAKRLMEIEEGHHHHHH”, the “soluble on expression in E. coli” value was “soluble”. In the case of “MAHHHHHHMRRSSMKFGLRQILSEELGKAAIFLRFKANEYIASTARACQTLTGAETNPEQANKRRKHRQVYEEILRQRQQVAQEAARRAMEGKSLRERLMASASAALKGLKEATSTNAGALALLQHCTAAHAAEVAVEQGIDVKSVTMQVEERKTGSQVGSETVVVGYIDAPNTSEEEMMAFAEQLSKKCPMANAMRGKIEWRRANGEVQHNDEQTTGNDNSVGSTSDKAGDAGSIPHGMPGTRYYSHESMRRGAGGVGDGDELHLPGVTKGSGKGPDK”, the “soluble on expression in E. coli” value is reported as “soluble”. In the case of “MGSDKIHHHHHHMSAEPIIQVENLSKMYRLGLKNEIHDSIAEAAVSWLKTPVKNYRNLKSLNTFGVPVDEDDPGVLWALRDVSFEVAEGEVLGIIGRNGAGKSTLLKVLSRITEPTRGRVIINGRVASLLEVGTGFHPDLTGRENVFMNGSILGMRKGEIAAKFDEIVDFAGLDRFIDTPIKRYSSGMVMRLAFSVAAHLEPEILIIDEVLAVGDAAFQKKCLDKMHKVASGGRTVLFVSHQLNSVSALCGRVMHMDSGRIIKNGDTRQVIDHYLTSAGFGVTTALHDRKDRCGAGHVRFVNSWIEDMQGNRLASAVSGEPVRIALEYQSHAEESFSDVKVYLRLYSMLNKPAGLFSNVYTEERIDISAGENGVLYCTVPRMMLNGGRYFFHLKLEAQGRQLDHIENAGYMEVEAGNVYANGKMPNDQWVYLHDYGWSGEPLHKG”, the “soluble on expression in E. coli” value is reported as “not soluble”. In the case of “GFKDYGHDYHPAPKTENIKGLGDLKPGIPKTPKQNGGGKRKRWTGDKGRKIYEWDSQHGELEGYRASDGQHLGSFDPKTGNQLKGPDPKRNIKKYL”, the “soluble on expression in E. coli” value is reported as “soluble”.
